Numbered stars: 1 amine (or outer) side, 2 acyl side, 3 side chain; on linkers, the order of the positions; unused ones are H or OH. Square brackets hold non-standard residues; d marks the D form. Side chains are listed from the residue outwards. Ends that are not written are not given here. * marks the point of attachment. C20 diacid = O=C(O)CCCCCCCCCCCCCCCCCCC(=O)*; γGlu = O=C(O)[C@H](CCC(=O)[*:2])N[*:1]; AEEA = NCCOCCOCC(=O)O; Aib = CC(C)(N)C(=O)O
B1: Peptide 33 (peptide)
peptide: Y[Aib]EGTFTSDYSILLDKIAQ[Aib]AFK([AEEA-AEEA-γGlu-C20 diacid])EYLIEGGPSSGAPPPS-NH2
B2: Peptide 48 (peptide)
peptide: Y[Aib]EGTFTSDYSILLDKIAQ[Aib]AFIEYLIEGGPSSGAPPPK([AEEA-AEEA-γGlu-C20 diacid])-NH2
modifications: N-terminus assumed
SMILES: CC[C@H](C)[C@H](NC(=O)[C@H](CCCCN)NC(=O)[C@H](CC(=O)O)NC(=O)[C@H](CC(C)C)NC(=O)[C@H](CC(C)C)NC(=O)[C@@H](NC(=O)[C@H](CO)NC(=O)[C@H](Cc1ccc(O)cc1)NC(=O)[C@H](CC(=O)O)NC(=O)[C@H](CO)NC(=O)[C@@H](NC(=O)[C@H](Cc1ccccc1)NC(=O)[C@@H](NC(=O)CNC(=O)[C@H](CCC(=O)O)NC(=O)C(C)(C)NC(=O)[C@@H](N)Cc1ccc(O)cc1)[C@@H](C)O)[C@@H](C)O)[C@@H](C)CC)C(=O)N[C@@H](C)C(=O)N[C@@H](CCC(N)=O)C(=O)NC(C)(C)C(=O)N[C@@H](C)C(=O)N[C@@H](Cc1ccccc1)C(=O)N[C@H](C(=O)N[C@@H](CCC(=O)O)C(=O)N[C@@H](Cc1ccc(O)cc1)C(=O)N[C@@H](CC(C)C)C(=O)N[C@H](C(=O)N[C@@H](CCC(=O)O)C(=O)NCC(=O)NCC(=O)N1CCC[C@H]1C(=O)N[C@@H](CO)C(=O)N[C@@H](CO)C(=O)NCC(=O)N[C@@H](C)C(=O)N1CCC[C@H]1C(=O)N1CCC[C@H]1C(=O)N1CCC[C@H]1C(=O)N[C@@H](CCCCNC(=O)COCCOCCNC(=O)COCCOCCNC(=O)CC[C@H](NC(=O)CCCCCCCCCCCCCCCCCCC(=O)O)C(=O)O)C(N)=O)[C@@H](C)CC)[C@@H](C)CC
B3: Peptide 46 (peptide)
peptide: Y[Aib]EGTFTSDYSILLDKIAQ[Aib]AFIEYLIEGGPSSGAPK([AEEA-AEEA-γGlu-C20 diacid])PS-NH2
modifications: N-terminus assumed
SMILES: CC[C@H](C)[C@H](NC(=O)[C@H](CCCCN)NC(=O)[C@H](CC(=O)O)NC(=O)[C@H](CC(C)C)NC(=O)[C@H](CC(C)C)NC(=O)[C@@H](NC(=O)[C@H](CO)NC(=O)[C@H](Cc1ccc(O)cc1)NC(=O)[C@H](CC(=O)O)NC(=O)[C@H](CO)NC(=O)[C@@H](NC(=O)[C@H](Cc1ccccc1)NC(=O)[C@@H](NC(=O)CNC(=O)[C@H](CCC(=O)O)NC(=O)C(C)(C)NC(=O)[C@@H](N)Cc1ccc(O)cc1)[C@@H](C)O)[C@@H](C)O)[C@@H](C)CC)C(=O)N[C@@H](C)C(=O)N[C@@H](CCC(N)=O)C(=O)NC(C)(C)C(=O)N[C@@H](C)C(=O)N[C@@H](Cc1ccccc1)C(=O)N[C@H](C(=O)N[C@@H](CCC(=O)O)C(=O)N[C@@H](Cc1ccc(O)cc1)C(=O)N[C@@H](CC(C)C)C(=O)N[C@H](C(=O)N[C@@H](CCC(=O)O)C(=O)NCC(=O)NCC(=O)N1CCC[C@H]1C(=O)N[C@@H](CO)C(=O)N[C@@H](CO)C(=O)NCC(=O)N[C@@H](C)C(=O)N1CCC[C@H]1C(=O)N[C@@H](CCCCNC(=O)COCCOCCNC(=O)COCCOCCNC(=O)CC[C@H](NC(=O)CCCCCCCCCCCCCCCCCCC(=O)O)C(=O)O)C(=O)N1CCC[C@H]1C(=O)N[C@@H](CO)C(N)=O)[C@@H](C)CC)[C@@H](C)CC
B4: Peptide 47 (peptide)
peptide: Y[Aib]EGTFTSDYSILLDKIAQ[Aib]AFIEYLIEGGPSSGAPPK([AEEA-AEEA-γGlu-C20 diacid])S-NH2
modifications: N-terminus assumed
SMILES: CC[C@H](C)[C@H](NC(=O)[C@H](CCCCN)NC(=O)[C@H](CC(=O)O)NC(=O)[C@H](CC(C)C)NC(=O)[C@H](CC(C)C)NC(=O)[C@@H](NC(=O)[C@H](CO)NC(=O)[C@H](Cc1ccc(O)cc1)NC(=O)[C@H](CC(=O)O)NC(=O)[C@H](CO)NC(=O)[C@@H](NC(=O)[C@H](Cc1ccccc1)NC(=O)[C@@H](NC(=O)CNC(=O)[C@H](CCC(=O)O)NC(=O)C(C)(C)NC(=O)[C@@H](N)Cc1ccc(O)cc1)[C@@H](C)O)[C@@H](C)O)[C@@H](C)CC)C(=O)N[C@@H](C)C(=O)N[C@@H](CCC(N)=O)C(=O)NC(C)(C)C(=O)N[C@@H](C)C(=O)N[C@@H](Cc1ccccc1)C(=O)N[C@H](C(=O)N[C@@H](CCC(=O)O)C(=O)N[C@@H](Cc1ccc(O)cc1)C(=O)N[C@@H](CC(C)C)C(=O)N[C@H](C(=O)N[C@@H](CCC(=O)O)C(=O)NCC(=O)NCC(=O)N1CCC[C@H]1C(=O)N[C@@H](CO)C(=O)N[C@@H](CO)C(=O)NCC(=O)N[C@@H](C)C(=O)N1CCC[C@H]1C(=O)N1CCC[C@H]1C(=O)N[C@@H](CCCCNC(=O)COCCOCCNC(=O)COCCOCCNC(=O)CC[C@H](NC(=O)CCCCCCCCCCCCCCCCCCC(=O)O)C(=O)O)C(=O)N[C@@H](CO)C(N)=O)[C@@H](C)CC)[C@@H](C)CC
B5: Peptide 34 (peptide)
peptide: Y[Aib]EGTFTSDYSILLDKIAQ[Aib]AFIK([AEEA-AEEA-γGlu-C20 diacid])YLIEGGPSSGAPPPS-NH2
modifications: N-terminus assumed
SMILES: CC[C@H](C)[C@H](NC(=O)[C@H](CCCCN)NC(=O)[C@H](CC(=O)O)NC(=O)[C@H](CC(C)C)NC(=O)[C@H](CC(C)C)NC(=O)[C@@H](NC(=O)[C@H](CO)NC(=O)[C@H](Cc1ccc(O)cc1)NC(=O)[C@H](CC(=O)O)NC(=O)[C@H](CO)NC(=O)[C@@H](NC(=O)[C@H](Cc1ccccc1)NC(=O)[C@@H](NC(=O)CNC(=O)[C@H](CCC(=O)O)NC(=O)C(C)(C)NC(=O)[C@@H](N)Cc1ccc(O)cc1)[C@@H](C)O)[C@@H](C)O)[C@@H](C)CC)C(=O)N[C@@H](C)C(=O)N[C@@H](CCC(N)=O)C(=O)NC(C)(C)C(=O)N[C@@H](C)C(=O)N[C@@H](Cc1ccccc1)C(=O)N[C@H](C(=O)N[C@@H](CCCCNC(=O)COCCOCCNC(=O)COCCOCCNC(=O)CC[C@H](NC(=O)CCCCCCCCCCCCCCCCCCC(=O)O)C(=O)O)C(=O)N[C@@H](Cc1ccc(O)cc1)C(=O)N[C@@H](CC(C)C)C(=O)N[C@H](C(=O)N[C@@H](CCC(=O)O)C(=O)NCC(=O)NCC(=O)N1CCC[C@H]1C(=O)N[C@@H](CO)C(=O)N[C@@H](CO)C(=O)NCC(=O)N[C@@H](C)C(=O)N1CCC[C@H]1C(=O)N1CCC[C@H]1C(=O)N1CCC[C@H]1C(=O)N[C@@H](CO)C(N)=O)[C@@H](C)CC)[C@@H](C)CC
B6: Peptide 41 (peptide)
peptide: Y[Aib]EGTFTSDYSILLDKIAQ[Aib]AFIEYLIEGGPK([AEEA-AEEA-γGlu-C20 diacid])SGAPPPS-NH2
modifications: N-terminus assumed
SMILES: CC[C@H](C)[C@H](NC(=O)[C@H](CCCCN)NC(=O)[C@H](CC(=O)O)NC(=O)[C@H](CC(C)C)NC(=O)[C@H](CC(C)C)NC(=O)[C@@H](NC(=O)[C@H](CO)NC(=O)[C@H](Cc1ccc(O)cc1)NC(=O)[C@H](CC(=O)O)NC(=O)[C@H](CO)NC(=O)[C@@H](NC(=O)[C@H](Cc1ccccc1)NC(=O)[C@@H](NC(=O)CNC(=O)[C@H](CCC(=O)O)NC(=O)C(C)(C)NC(=O)[C@@H](N)Cc1ccc(O)cc1)[C@@H](C)O)[C@@H](C)O)[C@@H](C)CC)C(=O)N[C@@H](C)C(=O)N[C@@H](CCC(N)=O)C(=O)NC(C)(C)C(=O)N[C@@H](C)C(=O)N[C@@H](Cc1ccccc1)C(=O)N[C@H](C(=O)N[C@@H](CCC(=O)O)C(=O)N[C@@H](Cc1ccc(O)cc1)C(=O)N[C@@H](CC(C)C)C(=O)N[C@H](C(=O)N[C@@H](CCC(=O)O)C(=O)NCC(=O)NCC(=O)N1CCC[C@H]1C(=O)N[C@@H](CCCCNC(=O)COCCOCCNC(=O)COCCOCCNC(=O)CC[C@H](NC(=O)CCCCCCCCCCCCCCCCCCC(=O)O)C(=O)O)C(=O)N[C@@H](CO)C(=O)NCC(=O)N[C@@H](C)C(=O)N1CCC[C@H]1C(=O)N1CCC[C@H]1C(=O)N1CCC[C@H]1C(=O)N[C@@H](CO)C(N)=O)[C@@H](C)CC)[C@@H](C)CC
B7: Peptide 37 (peptide)
peptide: Y[Aib]EGTFTSDYSILLDKIAQ[Aib]AFIEYLIK([AEEA-AEEA-γGlu-C20 diacid])GGPSSGAPPPS-NH2
modifications: N-terminus assumed
SMILES: CC[C@H](C)[C@H](NC(=O)[C@H](CCCCN)NC(=O)[C@H](CC(=O)O)NC(=O)[C@H](CC(C)C)NC(=O)[C@H](CC(C)C)NC(=O)[C@@H](NC(=O)[C@H](CO)NC(=O)[C@H](Cc1ccc(O)cc1)NC(=O)[C@H](CC(=O)O)NC(=O)[C@H](CO)NC(=O)[C@@H](NC(=O)[C@H](Cc1ccccc1)NC(=O)[C@@H](NC(=O)CNC(=O)[C@H](CCC(=O)O)NC(=O)C(C)(C)NC(=O)[C@@H](N)Cc1ccc(O)cc1)[C@@H](C)O)[C@@H](C)O)[C@@H](C)CC)C(=O)N[C@@H](C)C(=O)N[C@@H](CCC(N)=O)C(=O)NC(C)(C)C(=O)N[C@@H](C)C(=O)N[C@@H](Cc1ccccc1)C(=O)N[C@H](C(=O)N[C@@H](CCC(=O)O)C(=O)N[C@@H](Cc1ccc(O)cc1)C(=O)N[C@@H](CC(C)C)C(=O)N[C@H](C(=O)N[C@@H](CCCCNC(=O)COCCOCCNC(=O)COCCOCCNC(=O)CC[C@H](NC(=O)CCCCCCCCCCCCCCCCCCC(=O)O)C(=O)O)C(=O)NCC(=O)NCC(=O)N1CCC[C@H]1C(=O)N[C@@H](CO)C(=O)N[C@@H](CO)C(=O)NCC(=O)N[C@@H](C)C(=O)N1CCC[C@H]1C(=O)N1CCC[C@H]1C(=O)N1CCC[C@H]1C(=O)N[C@@H](CO)C(N)=O)[C@@H](C)CC)[C@@H](C)CC

target: human GLP-1 receptor (human, UniProt P43220 24-463); test: cell-based or functional assay

| Binder | hGLPIR cAMP EC50 ratio |
| --- | --- |
| B1 | 0.000256 |
| B2 | 0.0966 |
| B3 | 0.0969 |
| B4 | 0.089 |
| B5 | 0.0392 |
| B6 | 0.0637 |
| B7 | 0.0533 |
